# In US20230020362A1, “INFECTIOUS DISEASE VACCINES” (priority 2015, published 2023):
# How the values were obtained:
# Test in all cases: ProImmune REVEAL binding assay
# A*02:01 = A*02:01 (Homo sapiens, UniProt P04439, D140Y/D185E/D98H/E176V/E277Q/G131W/G231S/I119V/I121R/I166T/I218V/L300P/L318F/N151K/N90K/P208A/P217A/Q86G/Q94H/R138H/R169H/T345S)
# B*27:05 = B*27:05 (Homo sapiens, UniProt P01889, D138H/D201E/E176V/E204Q/G107R/H137Y/K202T/N104T/N87E/Q56L/Q94K/R106L/R155S/R180L/S101D/S121N/S48T/Y140D/Y33H/Y91C)
# A*11:01 = A*11:01 (Homo sapiens, UniProt P04439, A114D/D185E/E176A/F33Y/L180Q/S129P/T187R)
# H-2Kb = molecular target: T1, H-2Kb (Mus musculus, UniProt P01901)
# T1 sequence (P01901 22-295 limits assumed): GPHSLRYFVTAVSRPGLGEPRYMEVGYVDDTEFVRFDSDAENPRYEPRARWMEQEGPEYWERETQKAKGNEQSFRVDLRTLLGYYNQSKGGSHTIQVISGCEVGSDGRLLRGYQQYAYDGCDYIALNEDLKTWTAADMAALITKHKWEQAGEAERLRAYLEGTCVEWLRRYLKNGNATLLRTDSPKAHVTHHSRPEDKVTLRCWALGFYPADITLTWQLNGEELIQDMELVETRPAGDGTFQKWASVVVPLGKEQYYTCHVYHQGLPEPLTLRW
# T1 sequence (P01887 21-119 partner): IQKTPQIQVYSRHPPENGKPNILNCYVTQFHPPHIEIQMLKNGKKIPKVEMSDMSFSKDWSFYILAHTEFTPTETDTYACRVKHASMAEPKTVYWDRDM
# A*24:02 = A*24:02 (Homo sapiens, UniProt P04439, D101N/D140Y/D185E/E176V/E190D/F33S/G103R/G107R/I119L/I121M/I306V/K335N/L105A/L180Q/L300P/N151K/N90K/Q86E/Q94H/R106L/R138H/R89G/T104I/T345S/V100E/W191G/Y123F)
# A*03:01 = A*03:01 (Homo sapiens, UniProt P04439)
# B*07:02 = B*07:02 (Homo sapiens, UniProt P01889)
# A*01:01 = A*01:01 (Homo sapiens, UniProt P04439, A114D/A174V/A182V/D101N/D185E/E176A/E190D/L180R/Q94H/R68K/S129P/T187R/V100A/V91M/W191G)
sequence,measurement,setting,value
AISGDDCVV,REVEAL® score at 0 h,A*02:01,91.1
AMTDTTPFG,REVEAL® score at 0 h,A*02:01,91.9
ARGYISTRV,REVEAL® score at 0 h,B*27:05,125.3
ATFTMRLLS,REVEAL® score at 0 h,A*11:01,58.5
same,REVEAL® score at 0 h,H-2Kb,55.6
CHATFTMRL,REVEAL® score at 0 h,A*24:02,75.9
same,REVEAL® score at 0 h,H-2Kb,60.3
CVYNMMGKR,REVEAL® score at 0 h,A*03:01,81.6
same,REVEAL® score at 0 h,A*11:01,113.2
FKLTYQNKV,REVEAL® score at 0 h,B*27:05,53.7
FKPGTSGSP,REVEAL® score at 0 h,B*07:02,50.4
same,REVEAL® score at 0 h,H-2Kb,45.7
GEAAAIFMT,REVEAL® score at 0 h,A*02:01,74.3
same,REVEAL® score at 0 h,A*11:01,50.3
same,REVEAL® score at 0 h,A*24:02,58.9
GLYGNGVVT,REVEAL® score at 0 h,A*02:01,87.7
GQQRVFKEK,REVEAL® score at 0 h,A*02:01,47.1
same,REVEAL® score at 0 h,A*03:01,59.6
same,REVEAL® score at 0 h,A*11:01,85.5
same,REVEAL® score at 0 h,B*27:05,95.4
GTYGLNTFT,REVEAL® score at 0 h,A*11:01,63.6
HATFTMRLL,REVEAL® score at 0 h,H-2Kb,69.5
HTMWHVTRG,REVEAL® score at 0 h,A*11:01,56.3
HWTEAKMLL,REVEAL® score at 0 h,A*24:02,103.2
IPERSWNSG,REVEAL® score at 0 h,B*07:02,45.2
ISGDDCVVK,REVEAL® score at 0 h,A*11:01,88.7
IVDLMCHAT,REVEAL® score at 0 h,A*02:01,62.7
KLTYQNKVV,REVEAL® score at 0 h,A*02:01,92.3
KQWFLDLPL,REVEAL® Score,A*02:01,86.0
LAPTRVVAA,REVEAL® score at 0 h,H-2Kb,102.5
LGCGRGGWS,REVEAL® score at 0 h,A*24:02,74.8
LLCDIGESS,REVEAL® score at 0 h,A*02:01,93.9
LMCHATFTM,REVEAL® score at 0 h,A*02:01,72.9
same,REVEAL® score at 0 h,A*24:02,99.5
same,REVEAL® score at 0 h,B*27:05,98.2
same,REVEAL® score at 0 h,H-2Kb,59.0
LMRRGDLPV,REVEAL® score at 0 h,A*02:01,82.3
same,REVEAL® score at 0 h,B*07:02,178.9
LMYFHRRDL,REVEAL® score at 0 h,A*02:01,97.8
same,REVEAL® score at 0 h,B*07:02,119.6
same,REVEAL® score at 0 h,H-2Kb,54.9
LSRNSTHEM,REVEAL® score at 0 h,B*07:02,124.5
same,REVEAL® score at 0 h,H-2Kb,51.1
MAMTDTTPF,REVEAL® score at 0 h,A*24:02,51.3
same,REVEAL® score at 0 h,B*07:02,117.4
MCHATFTMR,REVEAL® score at 0 h,A*03:01,86.8
same,REVEAL® score at 0 h,A*11:01,91.0
MGEAAAIFM,REVEAL® score at 0 h,A*02:01,50.6
MWHVTRGAV,REVEAL® score at 0 h,A*02:01,62.7
NMMGKREKK,REVEAL® score at 0 h,A*11:01,77.9
PERVILAGP,REVEAL® score at 0 h,B*07:02,56.1
PLSRNSTHE,REVEAL® score at 0 h,B*07:02,65.0
QQRVFKEKV,REVEAL® score at 0 h,H-2Kb,63.4
RQWFFDLPL,REVEAL® Score,A*02:01,80.5
RRGDLPVWL,REVEAL® score at 0 h,B*27:05,144.8
SRNSTHEMY,REVEAL® score at 0 h,B*07:02,52.0
TLLCDIGES,REVEAL® score at 0 h,A*02:01,63.9
TMWHVTRGA,REVEAL® score at 0 h,A*02:01,112.0
TPFGQQRVF,REVEAL® score at 0 h,B*07:02,112.7
TTDISEMGA,REVEAL® score at 0 h,A*01:01,68.4
TVWFVPSIK,REVEAL® score at 0 h,A*11:01,92.2
VGTYGLNTF,REVEAL® score at 0 h,A*24:02,96.0
VVAAEMEEA,REVEAL® score at 0 h,A*02:01,92.2
VYNMMGKRE,REVEAL® score at 0 h,A*11:01,62.5
WTEAKMLLD,REVEAL® score at 0 h,A*24:02,94.7
YFHRRDLRL,REVEAL® score at 0 h,A*24:02,87.5
YGLNTFTNM,REVEAL® score at 0 h,H-2Kb,75.4
YNMMGKREK,REVEAL® score at 0 h,A*11:01,80.9
